# Values quoted from earlier work as cited in publication PMC7809386.
# Where two headings read alike, the source gives them in different places.
# Tests used:
# SecA (Escherichia coli) [1] = molecular target: SecA (Escherichia coli) (UniProt P10408)
# SecA (Escherichia coli) [2] = molecular target: SecA (Escherichia coli) (UniProt P10408); remark: listed apart in the source
substance,measurement,setting,value
SecA (from UniProt P10408),Kd,SecA (Escherichia coli) [1],0.74 nM
same,Kd,SecA (Escherichia coli) [2],100 nM
